This note sets out measurements from patent US20200231654A1 (published 2020).

For test [1], the target named is MMP-10 (catalytic domain) (human), (recombinant) (human, UniProt P09238 99-266). As to the kind of experiment: enzyme inhibition.
In test [2] the target is T1, Recombinant Human MMP-17 Protein, CF (human, UniProt Q9ULZ9 36-565).
T1 chain: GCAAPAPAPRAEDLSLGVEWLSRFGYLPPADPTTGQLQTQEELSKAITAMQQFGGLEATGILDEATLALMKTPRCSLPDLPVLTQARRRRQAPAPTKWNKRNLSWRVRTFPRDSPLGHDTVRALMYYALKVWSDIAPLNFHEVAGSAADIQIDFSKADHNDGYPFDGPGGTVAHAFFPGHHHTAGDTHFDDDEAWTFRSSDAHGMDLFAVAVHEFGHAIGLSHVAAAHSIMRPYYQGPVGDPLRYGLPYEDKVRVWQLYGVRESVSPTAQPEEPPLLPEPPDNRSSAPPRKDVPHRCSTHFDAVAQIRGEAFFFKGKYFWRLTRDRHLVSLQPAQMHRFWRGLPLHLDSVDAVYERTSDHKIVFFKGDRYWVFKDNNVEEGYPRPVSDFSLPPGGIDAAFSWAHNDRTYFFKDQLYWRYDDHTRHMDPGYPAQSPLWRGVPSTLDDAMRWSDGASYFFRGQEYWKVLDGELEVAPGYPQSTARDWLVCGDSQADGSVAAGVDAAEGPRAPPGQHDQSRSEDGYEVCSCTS
The test can be described thus: enzyme inhibition.

In test [3] the target is Recombinant Human MMP-16/MT3-MMP Protein, CF (human, UniProt P51512 32-564). As to the kind of experiment: enzyme inhibition.
Test [4] concerns the target APMA-activated human MMP-8 enzyme active domain (human, UniProt P22894 101-262). As to the kind of experiment: enzyme inhibition.
Test [5] has as its target human MMP-3 activated by APMA (human, UniProt P08254 100-477). As to the kind of experiment: enzyme inhibition.
For test [6], the target named is T2, MMP-7 (catalytic domain) (human), (recombinant) (human, UniProt P09237 95-267).
T2 chain: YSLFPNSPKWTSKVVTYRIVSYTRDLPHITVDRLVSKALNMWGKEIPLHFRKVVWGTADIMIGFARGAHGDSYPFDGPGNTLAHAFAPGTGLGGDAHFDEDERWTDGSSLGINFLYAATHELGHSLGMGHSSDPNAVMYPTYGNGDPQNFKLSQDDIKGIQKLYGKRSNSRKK
The test can be described thus: enzyme inhibition.

In test [7] the target is MMP14 Recombinant Protein (human, UniProt P50281 112-287). The test can be described thus: enzyme inhibition.
Test [8] has as its target MMP-12 (catalytic domain) (human), (recombinant) (human, UniProt P39900 106-263). The test can be described thus: enzyme inhibition.
The target of test [9] is T3, APMA-activated human MMP-1 enzyme active domain (human, UniProt P03956 100-269).
T3 chain: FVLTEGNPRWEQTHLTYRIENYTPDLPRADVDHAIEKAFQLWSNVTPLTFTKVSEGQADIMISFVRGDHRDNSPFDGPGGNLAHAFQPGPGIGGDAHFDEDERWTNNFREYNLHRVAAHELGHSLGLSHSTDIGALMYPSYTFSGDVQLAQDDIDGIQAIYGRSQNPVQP
The test can be described thus: enzyme inhibition.

Test [10] addresses T4, MMP-2, active, Human, Recombinant, CHO Cells (human, UniProt P08253 110-660).
T4 chain: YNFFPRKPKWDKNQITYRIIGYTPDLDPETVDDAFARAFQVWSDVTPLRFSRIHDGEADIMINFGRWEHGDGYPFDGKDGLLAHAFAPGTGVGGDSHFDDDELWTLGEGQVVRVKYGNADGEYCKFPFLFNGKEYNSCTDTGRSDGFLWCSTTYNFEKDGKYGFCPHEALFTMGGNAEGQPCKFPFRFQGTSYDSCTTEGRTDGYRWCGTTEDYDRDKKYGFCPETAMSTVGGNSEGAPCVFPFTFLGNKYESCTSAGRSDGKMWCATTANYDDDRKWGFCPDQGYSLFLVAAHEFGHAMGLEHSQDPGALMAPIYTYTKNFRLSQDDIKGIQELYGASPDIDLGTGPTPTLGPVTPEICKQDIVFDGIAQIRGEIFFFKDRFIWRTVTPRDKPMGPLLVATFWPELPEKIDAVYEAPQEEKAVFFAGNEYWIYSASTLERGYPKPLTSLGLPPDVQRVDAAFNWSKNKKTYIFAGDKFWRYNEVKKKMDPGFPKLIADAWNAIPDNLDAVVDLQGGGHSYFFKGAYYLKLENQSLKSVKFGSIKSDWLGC
As to the kind of experiment: enzyme inhibition.

Test [11] addresses APMA-activated human MMP-13 enzyme active domain (human, UniProt P45452 104-274). As to the kind of experiment: enzyme inhibition.
Test [12] concerns the target T5, ADAM17 (catalytic domain) (human), (recombinant) (His-tag) (human, UniProt P78536 215-477).
T5 chain: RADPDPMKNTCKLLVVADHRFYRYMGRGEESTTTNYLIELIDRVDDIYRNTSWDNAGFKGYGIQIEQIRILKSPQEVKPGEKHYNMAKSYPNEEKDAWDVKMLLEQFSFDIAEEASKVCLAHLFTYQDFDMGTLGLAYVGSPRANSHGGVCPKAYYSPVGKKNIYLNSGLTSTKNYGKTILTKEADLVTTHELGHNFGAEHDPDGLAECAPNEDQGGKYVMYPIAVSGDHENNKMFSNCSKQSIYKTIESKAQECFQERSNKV
As to the kind of experiment: enzyme inhibition.

A further test addresses active hMMP-9(cat)_His6 (UniProt P14780 107-449). The test can be described thus: enzyme inhibition; substrate peptide.
A further test addresses active hMMP-9(cat)_M422I (UniProt P14780 107-449). As to the kind of experiment: substrate peptide enzyme inhibition.
The next test has as its target active hMMP-9(cat)_V398A (UniProt P14780 107-449). As to the kind of experiment: substrate peptide enzyme inhibition.

Chain of MMP-10 (catalytic domain) (human), (recombinant) (P09238 99-266): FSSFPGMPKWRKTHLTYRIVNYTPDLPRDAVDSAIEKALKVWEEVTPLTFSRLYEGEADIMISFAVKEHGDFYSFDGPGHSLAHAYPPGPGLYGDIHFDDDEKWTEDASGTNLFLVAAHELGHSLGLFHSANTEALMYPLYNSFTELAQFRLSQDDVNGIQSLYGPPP
Chain of MMP-12 (catalytic domain) (human), (recombinant) (P39900 106-263): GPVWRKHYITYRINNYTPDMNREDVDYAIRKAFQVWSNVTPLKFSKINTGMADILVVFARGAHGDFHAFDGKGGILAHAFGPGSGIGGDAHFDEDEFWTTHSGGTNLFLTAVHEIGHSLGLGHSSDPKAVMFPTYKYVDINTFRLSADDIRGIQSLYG
Chain of active hMMP-9(cat)_His6 (P14780 107-449): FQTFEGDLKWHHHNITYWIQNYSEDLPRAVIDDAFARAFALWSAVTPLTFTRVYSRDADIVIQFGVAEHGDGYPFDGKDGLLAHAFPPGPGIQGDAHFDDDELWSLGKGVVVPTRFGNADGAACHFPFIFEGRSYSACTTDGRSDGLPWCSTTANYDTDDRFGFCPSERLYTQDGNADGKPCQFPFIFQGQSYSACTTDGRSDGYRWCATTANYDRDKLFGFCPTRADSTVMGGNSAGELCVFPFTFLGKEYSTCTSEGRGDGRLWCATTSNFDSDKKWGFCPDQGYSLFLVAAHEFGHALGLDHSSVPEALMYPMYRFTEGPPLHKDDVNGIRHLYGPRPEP
Chain of human MMP-3 activated by APMA (P08254 100-477): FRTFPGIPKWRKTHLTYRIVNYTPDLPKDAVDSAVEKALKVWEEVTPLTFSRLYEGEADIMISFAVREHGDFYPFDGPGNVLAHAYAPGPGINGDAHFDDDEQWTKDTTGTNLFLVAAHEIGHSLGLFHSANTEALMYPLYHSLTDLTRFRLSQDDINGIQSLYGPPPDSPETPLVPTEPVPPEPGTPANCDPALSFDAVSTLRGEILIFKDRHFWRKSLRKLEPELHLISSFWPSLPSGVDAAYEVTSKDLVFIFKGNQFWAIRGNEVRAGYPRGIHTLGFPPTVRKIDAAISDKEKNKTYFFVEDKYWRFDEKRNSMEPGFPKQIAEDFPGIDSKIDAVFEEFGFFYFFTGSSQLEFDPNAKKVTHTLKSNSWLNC
Chain of APMA-activated human MMP-8 enzyme active domain (P22894 101-262): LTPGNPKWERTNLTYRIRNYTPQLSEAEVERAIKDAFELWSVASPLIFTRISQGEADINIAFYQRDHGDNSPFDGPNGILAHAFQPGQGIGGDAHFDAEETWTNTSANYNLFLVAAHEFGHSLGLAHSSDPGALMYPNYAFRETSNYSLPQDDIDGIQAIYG
Chain of Recombinant Human MMP-16/MT3-MMP Protein, CF (P51512 32-564): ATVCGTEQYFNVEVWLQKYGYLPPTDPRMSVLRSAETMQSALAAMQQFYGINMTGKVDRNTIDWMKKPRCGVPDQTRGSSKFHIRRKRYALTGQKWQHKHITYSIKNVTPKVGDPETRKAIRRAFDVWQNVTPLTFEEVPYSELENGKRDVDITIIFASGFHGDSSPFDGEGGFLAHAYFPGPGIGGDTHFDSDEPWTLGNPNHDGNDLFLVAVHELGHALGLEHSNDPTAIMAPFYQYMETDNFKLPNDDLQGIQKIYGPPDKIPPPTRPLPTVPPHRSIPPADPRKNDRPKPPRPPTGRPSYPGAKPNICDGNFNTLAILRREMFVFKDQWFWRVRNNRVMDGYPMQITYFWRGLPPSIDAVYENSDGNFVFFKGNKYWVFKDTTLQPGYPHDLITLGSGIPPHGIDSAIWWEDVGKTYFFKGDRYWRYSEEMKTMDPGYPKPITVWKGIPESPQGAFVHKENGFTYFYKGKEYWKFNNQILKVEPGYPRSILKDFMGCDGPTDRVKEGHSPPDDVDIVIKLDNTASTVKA
Chain of active hMMP-9(cat)_V398A (P14780 107-449 V398A): as the sequence (P14780 107-449) above, with V292A counted along it
Chain of active hMMP-9(cat)_M422I (P14780 107-449 M422I): as the sequence (P14780 107-449) above, with M316I counted along it

B1: active MMP-9-binding peptide M91014 (designed binder)
chain: GSGMKETAAAKFERQHMDSPDLGTDDDDKAMADIGSANSDPQFGLFSKYRTPNCVMYKYAQCSHKYKPVCGSDMSTYANECTLCMKIREGGHNIKIIRNGPCGASAAA
For orientation: IC50 means the point on the concentration scale where inhibition reaches its midpoint. By Ki is commonly meant the dissociation constant of the complex between target and ligand, obtained from inhibition or displacement. As to B1, the IC50 in [1], in test [2], in [3], in [4], in [5] and in test [6] was over 1000 nM throughout. Also, the IC50 in test [7], in [8], in test [9], in [10], in [11] and in test [12] was over 1000 nM throughout. The Ki with active hMMP-9(cat)_His6 amounted to 0.45 nM.

B2: active MMP-9-binding peptide M91004 (designed binder)
chain: GSGMKETAAAKFERQHMDSPDLGTDDDDKAMADIGSANSDPQFGLFSKYRTPNCRQRKGPSCQMAFQPVCGSDMSTYANECTLCMKIREGGHNIKIIRNGPCGASAAA
B2: the IC50 in [1], in test [2], in [3], in test [4], in [5] and in test [6] was over 1000 nM throughout. Moreover, the IC50 in [7], in test [8], in test [9], in test [10], in test [11] and in test [12] was over 1000 nM in each case. In the test with active hMMP-9(cat)_His6, this molecule gave a Ki of 1.2 nM.

B3: active MMP-9-binding peptide M91011 (designed binder)
chain: GSGMKETAAAKFERQHMDSPDLGTDDDDKAMADIGSANSDPQFGLFSKYRTPNCMMYKYAQCSHKSQPVCGSDMSTYANECTLCMKIREGGHNIKIIRNGPCGASAAA
On to B3, for which the IC50 in test [1], in test [2], in test [3], in test [4], in [5] and in test [6] was over 1000 nM each time. For the same molecule, the IC50 in test [7], in [8], in test [9], in [10], in [11] and in test [12] was over 1000 nM in each case. For the same molecule, the IC50 came to 43 nM with active hMMP-9(cat)_M422I and 79 nM in the test with active hMMP-9(cat)_V398A. Besides, the Ki in the test with active hMMP-9(cat)_His6 came out at 1.6 nM.

B4: active MMP-9-binding peptide M91012 (designed binder)
chain: GSGMKETAAAKFERQHMDSPDLGTDDDDKAMADIGSANSDPQFGLFSKYRTPNCRVRGGPSCQMSFNPVCGSDMSTYANECTLCMKIREGGHNIKIIRNGPCGASAAA
Take B4: the IC50 in test [1], in [2], in [3], in test [4], in test [5] and in test [6] was over 1000 nM each time. In addition, the IC50 in test [7], in test [8], in test [9], in test [10], in test [11] and in test [12] was over 1000 nM each time. In the test with active hMMP-9(cat)_His6, this molecule displayed a Ki of 2.1 nM.

B5: active MMP-9-binding peptide M91010 (designed binder)
chain: GSGMKETAAAKFERQHMDSPDLGTDDDDKAMADIGSANSDPQFGLFSKYRTPNCRKVGEPACQMSFNPVCGSDMSTYANECTLCMKIREGGHNIKIIRNGPCGASAAA
For the molecule B5, the IC50 in test [1], in [2], in test [3], in test [4], in [5] and in [6] was over 1000 nM in each case. Besides, the IC50 in test [7], in test [8], in test [9], in test [10], in test [11] and in [12] was over 1000 nM throughout. The molecule further had a Ki with active hMMP-9(cat)_His6 of 1.2 nM.

B6: active MMP-9-binding peptide M91002 (designed binder)
chain: GSGMKETAAAKFERQHMDSPDLGTDDDDKAMADIGSANSDPQFGLFSKYRTPNCRTGRGPACQMGFQPVCGSDMSTYANECTLCMKIREGGHNIKIIRNGPCGASAAA
Take B6: the IC50 in test [1], in [2], in test [3], in test [4], in test [5] and in [6] was over 1000 nM each time. The IC50 in [7], in test [8], in test [9], in test [10], in [11] and in [12] was over 1000 nM in each case. Further, the Ki in the test with active hMMP-9(cat)_His6 came out at 2.3 nM.

B7: active MMP-9-binding peptide M91001 (designed binder)
chain: GSGMKETAAAKFERQHMDSPDLGTDDDDKAMADIGSANSDPQFGLFSKYRTPNCQRGIGPSCQMSYKPVCGSDMSTYANECTLCMKIREGGHNIKIIRNGPCGASAAA
In the case of B7, the IC50 in test [1], in test [2], in test [3], in test [4], in test [5] and in [6] was over 1000 nM in each case. Further, the IC50 in test [7], in [8], in test [9], in test [10], in test [11] and in test [12] was over 1000 nM in each case. This molecule showed a Ki with active hMMP-9(cat)_His6 of 2.6 nM.
